Paper doi:10.1101/2025.11.05.686744 (bioRxiv, 2025)

Key:
[1] = biological target: Spindlin1 (residues 50-262) (human, UniProt Q9Y657 50-262); test: NMR titration
[2] = biological target: Spindlin1^C96A/H252F (residues 50-262) (human, UniProt Q9Y657 50-262, C96A | H252F); test: NMR titration
Spindlin1^C96A/H252F (residues 50-262), sequence (Q9Y657 50-262 C96A/H252F): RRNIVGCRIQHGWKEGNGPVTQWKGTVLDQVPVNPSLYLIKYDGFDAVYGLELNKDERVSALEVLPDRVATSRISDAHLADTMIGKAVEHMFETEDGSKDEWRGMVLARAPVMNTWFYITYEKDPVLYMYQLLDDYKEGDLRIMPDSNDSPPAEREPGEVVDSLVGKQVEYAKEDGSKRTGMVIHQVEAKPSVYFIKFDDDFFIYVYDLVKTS

Spindlin1 (residues 50-262), sequence (Q9Y657 50-262): as the sequence (Q9Y657 50-262 C96A/H252F) above, with A47C, F203H counted along it

B1: HBx_(1-120) protein genotype D (Hepatitis B virus protein X, short isoform) (domain or fragment)
chain: MAARLCCQLDPARDVLCLRPVGAESCGRPFSGSLGTLSSPSPSAVPTDHGAHLSLRGLPVCAFSSAGPCALRFTSARRMETTVNAHQILPKVLHKRTLGLSAMSTTDLEAYFKDCLFKDW
Question: Does B1 bind [1]?
Answer: Result: binds

B2: HBx_(1-120)^C61A/C69A (domain or fragment, Hepatitis B virus genotype D, UniProt P03165 1-120, looked up)
chain: MAARLCCQLDPARDVLCLRPVGAESCGRPFSGSLGTLSSPSPSAVPTDHGAHLSLRGLPVAAFSSAGPAALRFTSARRMETTVNAHQILPKVLHKRTLGLSAMSTTDLEAYFKDCLFKDW
Question: Does B2 bind [2]?
Answer: Result: binds
